Assay results from the supplement of paper PMC9170038.

Tested on: MS2 coat protein
Assay: apparent KD of MS2 coat protein; designed switch direction (-1 OFF switch, 1 ON switch): 1; higher = weaker reporter binding
In short: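 For each design, the apparent KD is the median over clusters of curves fitted to normalised cluster fluorescence. Clusters held RNA switches with common flanks, transcribed on Illumina chips by stalled E. coli RNA polymerase. These were titrated with SNAP-549-labelled MS2 coat protein, doubling from 0.7 or 1.5 nM to 3 µM, without input, with 200 uM small-molecule ligand, or with an oligonucleotide input.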

[1] = Eterna round: R95, input ligand: FMN 200 uM
[2] = Eterna round: R95, input ligand: microRNA oligo, concentration not stated
[3] = Eterna round: R95, input ligand: none
[4] = input ligand: microRNA oligo, concentration not stated

| Sequence | apparent KD of MS2 coat protein [1] | apparent KD of MS2 coat protein [2] | apparent KD of MS2 coat protein [3] | apparent KD of MS2 coat protein (input ligand: FMN 200 uM) | apparent KD of MS2 coat protein [4] | apparent KD of MS2 coat protein (input ligand: none) |
| --- | --- | --- | --- | --- | --- | --- |
| AACAAUCUAUCUGAGGAUAUCAUGAAAUAAACAUGAGGAUCACCCAUGUGCAGGAAAACUGCAUAUGAGAAGGCAGAUAGAUUGA [salish99_ss2_r3_x] (puzzle: Same State 2) | 49.5 nM | 605 nM | 1060 nM |  |  |  |
| UUGAAGAAUUAAGGAUAUCGAGUCGUCUAAUUAAACAUGAGGAUCACCCAUGUGGGUUGCGGUAUCGAGAAGGUAAAUUACUAG [JL JR Sub099 mod 3] (Eterna round: R96, puzzle: Same State NG 2) |  |  |  | 25.2 nM | 22.8 nM | 37 nM |
| GUAGCAUACCGAGGAUAUUCAUAUUAUAACAUGAGGAUCACCCAUGUUGGCCGAUUACGGCCUUGGGAGAAGGCGGAAUGCUAC [Xeonanis - 20 Mod18] (Eterna round: R96, puzzle: Same State NG 2) |  |  |  | 15.8 nM | 74.1 nM | 84.3 nM |
| UACAAUCUAUCUGAGGAUAUCAUGCAUUACACAUGAGGAUCACCCAUGUGCAGGAAAACUGCAUAUGAGAAGGCAGAUAGAUUGU [salish99_ss2_r3_066] (Eterna round: R96, puzzle: Same State 2) |  |  |  | 15.5 nM | 328 nM | 411 nM |
| GUUACAUGAGGAUCACCCAUGUAUGUGUGGGAGUAAGUGUCUUAGGAUAUCUAUCAUUUAAUAUAAGAGAAGGAAGAUUGUUGU [JMF's solution 96] (Eterna round: R96, puzzle: Same State NG 3) |  |  |  |  | 87.3 nM |  |
| GGAUCCGGCACUGAGGAUAUUCAUAUUUAAACAUGAGGAUCACCCAUGUAGGCCAGAAGGCCUUGGGAGAAGGCAGGUCGGCUCG [salish99_ss2_r3_082] (puzzle: Same State 2) | 27.6 nM | 268 nM | 484 nM |  |  |  |
| AAACACAUGAGGAUCACCCAUGUAGCGCCAUUGAGGCGCACAUAGGAUAUCCGGUCCAAAAGACCGGAGAAGGGUGAAAGAAAA [Soesen] (Eterna round: R96, puzzle: Same State NG 3) |  |  |  | 125 nM | 166 nM | 146 nM |
| GGAUUGGAGGCAGGAUAUGGGCUCAGAACAUGAGGAUCACCCAUGUAAAACGGCGCGAUGCGCCACCAGAAGGGCCUCCGAUCG [Tiaonbira] (Eterna round: R96, puzzle: Same State NG 2) |  |  |  | 12.8 nM | 23.8 nM | 37.3 nM |
| UGUUAACAUGAGGAUCACCCAUGUCAAAUGAAUGAAGGAUAUGGAAAGUAAUAAGAUGAACUAGAAGGUCAAGAUG [Altered State 1-22 - Jieux - Same State 1] (puzzle: Same State 1) | 48.4 nM | 51.9 nM | 49.8 nM |  |  |  |
| CUCCCAUGUGCACAGGAUAUGCCGGGAUGCACAUGAGGAUCACCCAUGUAAUCCUGAAAAUAAAAGCAGAAGGGUGAUCAUGGGU [Teriqula] (puzzle: Same State 2) | 7.24 nM | 16.5 nM | 13.2 nM |  |  |  |
| AGCUAUCGCGUACGAUAGCUGAAGCAUGUACAUGAGGAUCACCCAUGUCAUGUGCAGGCUUUUUGCUCGUCUUAUUG [JL-shm-2.30 JL mod] (puzzle: Sensor for hsa-mir-208a) | 68.9 nM | 13.3 nM | 75.1 nM |  |  |  |
| CGUAGGUAGCUGGAGGAUAUCUGAGUGGUAACAUGAGGAUCACCCAUGUGAUGUGAGGAACAUGAGGAGAAGGCUAGCUGCCUGC [JL-ss2-3.13 JL mod] (puzzle: Same State 2) | 21.4 nM | 42.2 nM | 43.5 nM |  |  |  |
| AGCUAUCGCGUACGAUAGCUGAAGCGUGUACAUGAGGAUCACCCAUGUCAUGUGCAGGCUUUUUGCUCGUCUUAUUG [JL-shm-2.31 JL mod] (puzzle: Sensor for hsa-mir-208a) | 640 nM | 17.2 nM | 648 nM |  |  |  |
| GGAGCCGGCCUAGGAUAUUUCAUAUUAAAACAUGAGGAUCACCCAUGUAGGCCAGAAGGCCUUGGGAAGAAGGAGGUCGGCUCC [Loop Effect - U25,U26] (Eterna round: R96, puzzle: Same State NG 2) |  |  |  | 15.2 nM | 50.7 nM | 87.8 nM |
| GCCAUCGCAUGAGGAUAUGGCACCGUUUCGGUGCCAGAAGGCAUGUCAAUUGACAUGAGGAUCACCCAUGUAUUAUUGAUGGCA [JL Fiskers NG1ss - 33 mod 7] (Eterna round: R96, puzzle: Same State NG 1) |  |  |  | 55.6 nM | 448 nM | 860 nM |
